Laboratory results as given in PMC11143359 (2024).

B1: Lag3-Myc, full-length (FL), in HEK293FT cells [not stated] / human FLAG-APLP1, full length [human] (parent complex)
chain 1: GPGKELPVVWAQEGAPVHLPCSLKSPNLDPNFLRRGGVIWQHQPDSGQPTPIPALDLHQGMPSPRQPAPGRYTVLSVAPGGLRSGRQPLHPHVQLEERGLQRGDFSLWLRPALRTDAGEYHATVRLPNRALSCSLRLRVGQASMIASPSGVLKLSDWVLLNCSFSRPDRPVSVHWFQGQNRVPVYNSPRHFLAETFLLLPQVSPLDSGTWGCVLTYRDGFNVSITYNLKVLGLEPVAPLTVYAAEGSRVELPCHLPPGVGTPSLLIAKWTPPGGGPELPVAGKSGNFTLHLEAVGLAQAGTYTCSIHLQGQQLNATVTLAVITVTPKSFGLPGSRGKLLCEVTPASGKERFVWRPLNNLSRSCPGPVLEIQEARLLAERWQCQLYEGQRLLGATVYAAESSSGAHSARRISGDLKGGHLVLVLILGALSLFLLVAGAFGFHWWRKQLLLRRFSALEHGIQPFPAQRKIEELERELETEMGQEPEPEPEPQLEPEPRQL
chain 2: SLAGGSPGAAEAPGSAQVAGLCGRLTLHRDLRTGRWEPDPQRSRRCLRDPQRVLEYCRQMYPELQIARVEQATQAIPMERWCGGSRSGSCAHPHHQVVPFRCLPGEFVSEALLVPEGCRFLHQERMDQCESSTRRHQEAQEACSSQGLILHGSGMLLPCGSDRFRGVEYVCCPPPGTPDPSGTAVGDPSTRSWPPGSRVEGAEDEEEEESFPQPVDDYFVEPPQAEEEEETVPPPSSHTLAVVGKVTPTPRPTDGVDIYFGMPGEISEHEGFLRAKMDLEERRMRQINEVMREWAMADNQSKNLPKADRQALNEHFQSILQTLEEQVSGERQRLVETHATRVIALINDQRRAALEGFLAALQADPPQAERVLLALRRYLRAEQKEQRHTLRHYQHVAAVDPEKAQQMRFQVHTHLQVIEERVNQSLGLLDQNPHLAQELRPQIQELLHSEHLGPSELEAPAPGGSSEDKGGLQPPDSKDDTPMTLPKGSTEQDAASPEKEKMNPLEQYERKVNASVPRGFPFHSSEIQRDELAPAGTGVSREAVSGLLIMGAGGGSLIVLSMLLLRRKKPYGAISHGVVEVDPMLTLEEQQLRELQRHGYENPTYRFLEERP

Variants of: B1
Assay: co-IP (IP: FLAG, blot Myc-Lag3), band intensity quantified; read off a plot

Variant	response
chain 2 L25A, chain 2 T26A, chain 2 H28A, chain 2 D30A, chain 2 C46A, chain 2 L47A, chain 2 Q71A, chain 2 T73A, chain 2 I76A	~20 AU
